Test results: the supplement of paper PMC7125110
± gives the standard error. Variants at the floor of the assay were thinned out.

B1: glmS ribozyme (parent)
chain: AUAAAAGCGCCAGAACUACAGAAAUGUAGUUGACGAGGAGGAGGUUUAUCGAAUUUUCGGCGGAUGCCUCCAAA

Columns and labels:
Settings in all cases: with glucosamine-6-phosphate
[1] = variants of: B1; experiment: self-cleavage kobs at 40 uM GlcN6P; higher = faster cleavage; RNA array
How it was run: (§1)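 The measurements used barcoded ribozyme variants on sequenced MiSeq chips, transcribed in situ by E. coli RNA polymerase and tracked at 37 °C with a hybridised Cy3 probe. Glucosamine-6-phosphate, 40 μM to 10 mM in HEPES/KCl/Mg(OAc)2 buffer, was flowed in while tiles were imaged over ~14 h. Baseline-normalised signals, also normalised to non-cleaving reference variants, gave per-tile medians that were fit to one- or two-exponential decays for kobs. kcat and KM resulted from weighted Michaelis–Menten fits across concentrations.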

[2] = variants of: B1; experiment: self-cleavage kobs at 160 uM GlcN6P; higher = faster cleavage; RNA array
How it was run: as §1

[3] = variants of: B1; experiment: self-cleavage kobs at 10000 uM GlcN6P; higher = faster cleavage; RNA array
How it was run: as §1

[4] = variants of: B1; experiment: self-cleavage kobs at 640 uM GlcN6P; higher = faster cleavage; RNA array
How it was run: as §1

[5] = variants of: B1; experiment: self-cleavage kobs at 2500 uM GlcN6P; higher = faster cleavage; RNA array
How it was run: as §1

| Variant | self-cleavage kobs at 40 uM GlcN6P [1] [s⁻¹] | self-cleavage kobs at 160 uM GlcN6P [2] [s⁻¹] | self-cleavage kobs at 10000 uM GlcN6P [3] [s⁻¹] | self-cleavage kobs at 640 uM GlcN6P [4] [s⁻¹] | self-cleavage kobs at 2500 uM GlcN6P [5] [s⁻¹] |
| --- | --- | --- | --- | --- | --- |
| C11A U49G C67G | 4.47e-05 ± 1.8e-05 |  |  |  |  |
| U30C U47C | < 1e-05 | < 1e-05 |  |  |  |
| G40A G44A C70U | < 1e-05 |  | < 1e-05 |  |  |
| U31G U55A | 0.000446 ± 7.1e-05 | 0.00128 ± 0.00045 | 0.0118 ± 0.0023 | 0.00221 ± 0.00041 | 0.00465 ± 0.0011 |
| G44U C58U C71U | < 1e-05 |  | < 1e-05 | < 1e-05 | < 1e-05 |
| C8G U31C C71A | < 1e-05 |  |  |  |  |
| A48G A64U | < 1e-05 | < 1e-05 | < 1e-05 | < 1e-05 |  |
| U45A G60U C68G C70U | < 1e-05 |  |  |  |  |
| G13U G35U | < 1e-05 | < 1e-05 | < 1e-05 | < 1e-05 | < 1e-05 |
| C8A U49A G51A | < 1e-05 |  | < 1e-05 |  |  |
| G7A G41A | < 1e-05 | < 1e-05 | < 1e-05 | < 1e-05 | < 1e-05 |
| U56C C61G | < 1e-05 |  | < 1e-05 |  | < 1e-05 |
| G29U A53C C68U | < 1e-05 |  | 3.37e-05 ± 1.6e-05 |  |  |
| G13C A15U C16G A39C | < 1e-05 |  | < 1e-05 |  |  |
| U47G C58U C70A | 7.14e-05 ± 3e-05 |  | 4.44e-05 ± 2.1e-05 |  | 9.31e-05 ± 2e-05 |
| C11A A39C G62C A64U C67G | < 1e-05 |  |  |  |  |
| A12U A14G C68U | 0.000526 ± 0.0001 |  |  |  |  |
| C8U U65G | < 1e-05 | < 1e-05 | < 1e-05 | < 1e-05 | < 1e-05 |
| A15C G32U G40U | < 1e-05 |  | 5.23e-05 ± 1.4e-05 |  |  |
| U47G U56G G63U | < 1e-05 |  |  |  |  |
| U55G C61A G66C C70A | 0.000162 ± 4.4e-05 | 0.000108 ± 2.1e-05 |  | 0.000153 ± 3.1e-05 | 8.3e-05 ± 1.7e-05 |
| A6C G13C A52G | < 1e-05 |  | < 1e-05 |  |  |
| U47A A53G | 0.000816 ± 9.9e-05 | 0.00166 ± 0.0003 | 0.04 ± 0.011 | 0.00725 ± 0.0013 | 0.0106 ± 0.0028 |
| A6U A48U C70U | < 1e-05 |  |  |  |  |
| G38U G40U | < 1e-05 |  | < 1e-05 |  |  |
| U49A C67A U69C | < 1e-05 |  |  |  |  |
